Reference: patent US20110239317A1 (Johns Hopkins, published 2011)

T1: mature C-terminal myostatin peptide (disulfide-linked C-terminal dimer), purified from CHO cell conditioned … (UniProt O14793 24-375, limits assumed, radio-iodinated (on tyrosine, residues not stated) in the receptor binding assay)
T1 construct: mature; also called GDF-8; mature C-terminal peptide
T1 sequence (looked up): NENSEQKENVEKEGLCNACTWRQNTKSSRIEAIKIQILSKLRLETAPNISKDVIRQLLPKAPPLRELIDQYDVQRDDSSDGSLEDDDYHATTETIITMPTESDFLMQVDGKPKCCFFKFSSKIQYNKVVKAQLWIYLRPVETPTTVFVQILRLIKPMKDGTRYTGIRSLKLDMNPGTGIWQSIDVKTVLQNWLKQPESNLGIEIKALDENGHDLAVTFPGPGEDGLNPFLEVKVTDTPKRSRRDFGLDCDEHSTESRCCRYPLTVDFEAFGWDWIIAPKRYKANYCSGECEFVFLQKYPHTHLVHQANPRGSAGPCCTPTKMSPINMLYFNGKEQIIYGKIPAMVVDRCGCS


Experiments:
[1] = molecular target: GDF-8 receptor (cell surface binding proteins on L6 and G-8 myoblasts); assay: receptor-ligand binding assay with I-125 GDF-8 on myoblasts
[2] = molecular target: GDF-8 receptor (cell surface binding proteins on L6 and G-8 myoblasts); assay: receptor-ligand binding assay with I-125 GDF-8 on L6 myoblasts
[3] = molecular target: T1, mature C-terminal myostatin peptide …; assay: radio-iodinated myostatin on COS cells transfected with Act RIIB, Scatchard analysis

Row | Kd [1] | receptors/cell (receptors/cell) [2] | Kd [3] | Molecule
1 | 0.37 nM | 5000 | – | recombinant human GDF-8 (rhGDF-8) homodimer (from UniProt O14793 267-374) (ligand)
2 | – | – | ~5 nM | activin type IIB receptor (Act RIIB) expressed on transfected COS cells (receptor) SGRGEAETRECIYYNANWELERTNQSGLERCEGEQDKRLHCYASWRNSSGTIELVKKGCWLDDFNCYDRQECVATEENPQVYFCCCEGNFCNERFTHLPEAGGPEVTYEPPPTAPTLLTVLAYSLLPIGGLSLIVLLAFWMYRHRKPPYGHVDIHEDPGPPPPSPLVGLKPLQLLEIKARGRFGCVWKAQLMNDFVAVKIFPLQDKQSWQSEREIFSTPGMKHENLLQFIAAEKRGSNLEVELWLITAFHDKGSLTDYLKGNIITWNELCHVAETMSRGLSYLHEDVPWCRGEGHKPSIAHRDFKSKNVLLKSDLTAVLADFGLAVRFEPGKPPGDTHGQVGTRRYMAPEVLEGAINFQRDAFLRIDMYAMGLVLWELVSRCKAADGPVDEYMLPFEEEIGQHPSLEELQEVVVHKKMRPTIKDHWLKHPGLAQLCVTIEECWDHDAEARLSAGCVEERVSLIRRSVNGTTSDCLVSLVTSVTNVDLPPKESSI
